The results in this text go back to US20130302346A1 (LEXICON PHARMACEUTICALS, published 2013).

One assay concerns the target T1, Mouse NOTUM (mouse, UniProt Q8R116 20-503).
T1 construct: also called recombinant mouse NOTUM
T1 sequence: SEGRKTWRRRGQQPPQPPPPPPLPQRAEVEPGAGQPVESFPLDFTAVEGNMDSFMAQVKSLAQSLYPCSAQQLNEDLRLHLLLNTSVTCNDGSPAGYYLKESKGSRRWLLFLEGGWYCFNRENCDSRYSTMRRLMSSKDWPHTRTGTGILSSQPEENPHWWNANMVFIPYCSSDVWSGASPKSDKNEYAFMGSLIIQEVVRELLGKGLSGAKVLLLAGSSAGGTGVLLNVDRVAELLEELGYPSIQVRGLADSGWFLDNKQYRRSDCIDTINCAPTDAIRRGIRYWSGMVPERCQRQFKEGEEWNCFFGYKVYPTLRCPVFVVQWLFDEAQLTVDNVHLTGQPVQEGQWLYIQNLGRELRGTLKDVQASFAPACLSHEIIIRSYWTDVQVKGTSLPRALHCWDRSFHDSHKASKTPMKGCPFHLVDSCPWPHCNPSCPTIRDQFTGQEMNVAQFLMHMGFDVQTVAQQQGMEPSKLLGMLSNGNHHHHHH
Briefly: ELISA (column 'Mouse NOTUM binding'). In general terms: An ELISA detects its analyte on a solid surface through an enzyme-linked reagent.

The next assay addresses T2, H-M.
T2 construct: Drawn on the sheet as human N-terminal part and mouse C-terminal part; Produced by transient transfection of HEK293F and used as conditioned medium; also called Human-mouse chimeric NOTUM
T2 single chain: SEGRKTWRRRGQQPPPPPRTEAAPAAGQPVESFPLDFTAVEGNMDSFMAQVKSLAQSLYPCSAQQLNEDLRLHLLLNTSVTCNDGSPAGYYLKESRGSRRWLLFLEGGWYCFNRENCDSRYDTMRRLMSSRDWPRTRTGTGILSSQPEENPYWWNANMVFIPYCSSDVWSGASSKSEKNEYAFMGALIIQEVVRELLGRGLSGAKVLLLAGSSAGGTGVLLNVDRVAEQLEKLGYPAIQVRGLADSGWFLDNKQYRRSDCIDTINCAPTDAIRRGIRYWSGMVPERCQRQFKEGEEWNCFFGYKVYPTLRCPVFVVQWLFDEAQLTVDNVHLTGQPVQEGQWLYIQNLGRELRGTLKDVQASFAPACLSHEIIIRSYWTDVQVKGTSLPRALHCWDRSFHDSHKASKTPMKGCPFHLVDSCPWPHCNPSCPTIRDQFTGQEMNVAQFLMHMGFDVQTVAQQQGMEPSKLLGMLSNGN
Briefly: ELISA on conditioned medium of HEK293F transfected with the NOTUM construct (Example 6.7). The text has this:
The sequences of those proteins are shown in Section 7 (Table of Sequences). The conditioned media were used in ELISA format to determine antibody specificity. […] Within this region, mouse and human NOTUM differ at five positions (R115K, D141S. R150K, R154H, and Y171H, based on the human sequence numbering). Human NOTUM point mutants were generated by transient transfection of constructs expressing human NOTUM with the mouse amino acid at each of these five positions and the point mutants were all shown to be functional in the OPTS assay.

Assay [1] concerns the target T3, Human NOTUM (human, UniProt Q6P988 20-496).
T3 sequence: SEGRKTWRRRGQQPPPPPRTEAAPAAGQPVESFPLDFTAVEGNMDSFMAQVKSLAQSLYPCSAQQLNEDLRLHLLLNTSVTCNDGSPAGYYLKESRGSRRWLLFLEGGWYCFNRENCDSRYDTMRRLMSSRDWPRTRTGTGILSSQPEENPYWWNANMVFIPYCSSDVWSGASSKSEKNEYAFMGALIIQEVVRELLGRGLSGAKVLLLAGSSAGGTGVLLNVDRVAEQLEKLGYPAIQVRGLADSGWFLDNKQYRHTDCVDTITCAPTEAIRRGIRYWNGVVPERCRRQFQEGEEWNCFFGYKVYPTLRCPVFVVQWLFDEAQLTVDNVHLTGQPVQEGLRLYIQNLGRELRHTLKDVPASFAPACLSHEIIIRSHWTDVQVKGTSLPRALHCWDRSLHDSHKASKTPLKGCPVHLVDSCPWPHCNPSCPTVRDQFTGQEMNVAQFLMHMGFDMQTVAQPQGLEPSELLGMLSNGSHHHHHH
Briefly: cell-based or functional assay.

Assay [2] concerns the target T3, Human NOTUM. In words: Biacore 3000. On the procedure:
Binding affinities of certain anti-NOTUM MAbs was determined using a Biacore 3000. In order to obtain meaningful affinity values for binding to multimeric […] NOTUM protein, antibody FAb fragments were generated by digestion of whole IgG with the protease Ficin, followed by removal of undigested IgG and Fc fragments by protein A affinity chromatography. Affinity values for binding of FAbs and whole IgG to human NOTUM corresponded, and their affinity values were in the single to low double digit nM range, as shown in Table 3.
In general terms: Surface plasmon resonance follows binding to a sensor surface in real time, without labels.

Numbering of substitutions follows the chain as printed.

B1: MAb 1.802 (antibody, V domains shown)
VH: EVQLVESGGGLVKPGGSLKLSCAASGFTFSDYGMHWFRQAPEKGLEWVAYISSGSRTVYYADTVKGRFTISRDNAKNTLSLQMTSLRSEDTAMYYCARKHYNGGYFDVWGTGTTVTVSS
VL: DIVLTQSPASLAVSLGQRATISCRASKIVSTSGYSYMHWYQQKPGQPPKLLIYLASNLESGVPARFSGSGSGTDFTLNIHPVEEEDAATYYCQHSRELPPTFGSGTKLEIKR
notes: Mouse monoclonal antibody from Campaign 1 (raised against human NOTUM), IgG1
For orientation: Kd means a measure of binding affinity in units of concentration. Low readings indicate tighter binding, high ones weaker binding. The kon is a measure of how fast the partners come together. Low readings indicate slower complex formation, high ones faster complex formation. As for B1, the binding result with Mouse NOTUM is listed as “no binding”. For the same molecule, the binding result with H-M is recorded as “binds”. Also, in the assay with Human NOTUM [1], the “OPTS IC50 (nM; human NOTUM)” value amounted to 6.44 nM and the “Wnt signaling IC50 (nM; human NOTUM)” value was found to be 5.71 nM. Moreover, in the assay with Human NOTUM [2], the Kd is 1.42 nM and the kon was found to be 257000 M⁻¹ s⁻¹.

B2: MAb 1.815 (antibody, IgG1, V domains shown)
VH: DVQLLESGGGLVQPGGSRKLSCAASGFTFSDFGMHWVRQAPEKGLEWVAYSSSGGTTVYYADTVKGRLTLSRDNSKNTLFLEMTSLRSEDTAMYYCARASYDGGYFDCWGQGTSLTVSS
VL: B1 VL with I28S, M37I, N57D, T73A, D74A, Q93H, P100F
notes: Mouse monoclonal antibody from Campaign 1, IgG1
As to B2, the values for the binding result with Mouse NOTUM and in the assay with H-M were “no binding” and “binds”, respectively. For the same molecule, in the assay with Human NOTUM [1], the “OPTS IC50 (nM; human NOTUM)” value stood at 7.62 nM. Besides, the “Wnt signaling IC50 (nM; human NOTUM)” value in the assay with Human NOTUM [1] is 6.88 nM.

B3: MAb 1.846 (antibody, IgG2b, V domains shown)
VH: B1 VH with G10D, F37L, R56T, V58L, Y59S, D62N, V64M, N77K, M93I, H100N
VL: B1 VL with A12V, I28S, T31E, E85G, A88T, E97V
notes: Mouse monoclonal antibody from Campaign 1, IgG2b
For the molecule B3, in the assay with Mouse NOTUM, the binding result was “no binding”. Also, the binding result in the assay with H-M is listed as “binds”. In addition, in the assay with Human NOTUM [1], the “OPTS IC50 (nM; human NOTUM)” value was 10.1 nM and the “Wnt signaling IC50 (nM; human NOTUM)” value was 1.7 nM.
